The results in this text go back to patent US20260055210A1.

For assay [1], the target named is Flt3 receptor on OCI-AML5 cells (human) (UniProt P36888). The experiment in a line: cell-based or functional assay.
Assay [2] deals with mouse thrombopoietin receptor cMPL expressed on the surface of Freestyle HEK293 cells (mouse) (UniProt Q08351). The experiment in a line: flow cytometry on mouse cMPL-expressing HEK293 cells, fluorescent anti-IgG1 secondary antibody. Background: A flow cytometer gives signals particle by particle.
Chain of mouse thrombopoietin receptor cMPL expressed on the surface of Freestyle HEK293 cells (mouse) (Q08351 26-625): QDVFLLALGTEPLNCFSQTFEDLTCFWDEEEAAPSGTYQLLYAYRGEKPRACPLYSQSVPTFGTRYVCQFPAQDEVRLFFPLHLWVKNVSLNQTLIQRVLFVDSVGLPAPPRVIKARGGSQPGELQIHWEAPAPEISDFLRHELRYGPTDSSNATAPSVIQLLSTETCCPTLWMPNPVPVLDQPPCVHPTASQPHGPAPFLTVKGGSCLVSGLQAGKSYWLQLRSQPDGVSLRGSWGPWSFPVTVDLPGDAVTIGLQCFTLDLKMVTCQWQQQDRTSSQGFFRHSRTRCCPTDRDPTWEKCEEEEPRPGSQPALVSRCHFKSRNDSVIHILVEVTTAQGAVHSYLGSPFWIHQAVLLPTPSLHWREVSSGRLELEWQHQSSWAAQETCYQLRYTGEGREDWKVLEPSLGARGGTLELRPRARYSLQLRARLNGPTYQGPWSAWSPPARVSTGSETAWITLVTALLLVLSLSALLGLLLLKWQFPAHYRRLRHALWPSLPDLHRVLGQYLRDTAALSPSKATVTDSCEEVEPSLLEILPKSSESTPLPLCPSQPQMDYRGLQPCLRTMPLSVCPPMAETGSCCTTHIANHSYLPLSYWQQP
In assay [3] the target is human thrombopoietin receptor cMPL expressed on the surface of Freestyle HEK293 cells (human) (UniProt P40238). The experiment in a line: flow cytometry on human cMPL-expressing HEK293 cells, fluorescent anti-IgG1 secondary antibody.
In assay [4] the target is cMPL/TPO receptor on M-07e cells (human) (UniProt P40238). The experiment in a line: cell-based or functional assay.

Where “and” joins values, the source holds several entries; their conditions need not be identical. Identical values can stand only once. Bounds are passed on as bounds.

Chain of Flt3 receptor on OCI-AML5 cells (human) (P36888 27-993): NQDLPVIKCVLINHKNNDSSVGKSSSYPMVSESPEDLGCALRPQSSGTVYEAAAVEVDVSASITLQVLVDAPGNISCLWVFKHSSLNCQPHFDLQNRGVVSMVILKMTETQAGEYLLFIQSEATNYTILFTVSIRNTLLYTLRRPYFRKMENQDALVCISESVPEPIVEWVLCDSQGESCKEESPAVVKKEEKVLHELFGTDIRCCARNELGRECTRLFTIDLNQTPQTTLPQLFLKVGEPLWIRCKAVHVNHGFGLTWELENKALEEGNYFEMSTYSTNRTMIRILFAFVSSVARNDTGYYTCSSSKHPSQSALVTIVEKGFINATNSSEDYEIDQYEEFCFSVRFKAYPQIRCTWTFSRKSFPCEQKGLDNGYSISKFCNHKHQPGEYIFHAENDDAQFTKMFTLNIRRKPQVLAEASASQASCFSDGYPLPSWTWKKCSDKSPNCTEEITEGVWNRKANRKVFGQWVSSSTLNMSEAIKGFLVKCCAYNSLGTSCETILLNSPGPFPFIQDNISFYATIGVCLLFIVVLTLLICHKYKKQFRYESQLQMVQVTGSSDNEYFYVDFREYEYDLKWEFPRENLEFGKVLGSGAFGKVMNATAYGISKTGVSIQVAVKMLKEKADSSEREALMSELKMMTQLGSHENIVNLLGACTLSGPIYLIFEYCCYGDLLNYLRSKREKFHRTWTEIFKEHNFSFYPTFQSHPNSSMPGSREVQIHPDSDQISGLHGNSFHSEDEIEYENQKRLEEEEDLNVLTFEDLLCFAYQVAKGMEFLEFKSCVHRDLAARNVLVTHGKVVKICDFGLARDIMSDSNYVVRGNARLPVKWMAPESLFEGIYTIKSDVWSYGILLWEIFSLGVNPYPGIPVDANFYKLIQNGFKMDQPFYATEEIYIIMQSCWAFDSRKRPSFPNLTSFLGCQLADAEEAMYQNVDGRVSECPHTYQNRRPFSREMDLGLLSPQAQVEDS

As to FL monomer Fc fusion polypeptide, in assay [1], the apoptosis of starved OCI-AML5 cells, Annexin V flow cytometry was 53.8%; the live cells, starved OCI-AML5, Annexin V flow cytometry stood at 45.8%; the percent of OCI-AML5 cells positive for Erk1/2 phosphorylation came to 75%.
With “FLT3L-romiplostim fusion polypeptide without a His-Tag (Fc fusion)”, the percentage of bound cells in assay [2] was > 40 percent and 50 percent; in assay [3] it was > 30 percent and 40 percent.
On to Nplate (Romiplostim) (Fc fusion), for which, in assay [4], the EC50 of M-07e cell proliferation, XTT assay came out at 0.0121 µM; the percent of M-07e cells positive for Akt phosphorylation was found to be 20%; the percent of M-07e cells positive for Erk1/2 phosphorylation at 6.67 nM was 60%; the percent of M-07e cells positive for Erk1/2 phosphorylation at 13.33 nM was found to be 60%. This substance had a percent of M-07e cells positive for Erk1/2 phosphorylation, 25 ng/ml to 800 ng/ml romiplostim in assay [4] of 60%. This substance also showed a percentage of bound cells in assay [2] above 40 percent. Also, the percentage of bound cells in assay [3] was above 30 percent.
In assay [4], thrombopoietin mimetic (TPOm) peptide had a percent of M-07e cells positive for Akt phosphorylation below 5%, a percent of M-07e cells positive for Erk1/2 phosphorylation at 25 ng/ml TPOm below 5% and a percent of M-07e cells positive for Erk1/2 phosphorylation at 800 ng/ml TPOm of 20%.
